In test [1] the target is T1, human ROBO3 (pCI-hROBO3-transfected HEK293 cells) (human, UniProt Q96MS0 21-1386).
T1 sequence: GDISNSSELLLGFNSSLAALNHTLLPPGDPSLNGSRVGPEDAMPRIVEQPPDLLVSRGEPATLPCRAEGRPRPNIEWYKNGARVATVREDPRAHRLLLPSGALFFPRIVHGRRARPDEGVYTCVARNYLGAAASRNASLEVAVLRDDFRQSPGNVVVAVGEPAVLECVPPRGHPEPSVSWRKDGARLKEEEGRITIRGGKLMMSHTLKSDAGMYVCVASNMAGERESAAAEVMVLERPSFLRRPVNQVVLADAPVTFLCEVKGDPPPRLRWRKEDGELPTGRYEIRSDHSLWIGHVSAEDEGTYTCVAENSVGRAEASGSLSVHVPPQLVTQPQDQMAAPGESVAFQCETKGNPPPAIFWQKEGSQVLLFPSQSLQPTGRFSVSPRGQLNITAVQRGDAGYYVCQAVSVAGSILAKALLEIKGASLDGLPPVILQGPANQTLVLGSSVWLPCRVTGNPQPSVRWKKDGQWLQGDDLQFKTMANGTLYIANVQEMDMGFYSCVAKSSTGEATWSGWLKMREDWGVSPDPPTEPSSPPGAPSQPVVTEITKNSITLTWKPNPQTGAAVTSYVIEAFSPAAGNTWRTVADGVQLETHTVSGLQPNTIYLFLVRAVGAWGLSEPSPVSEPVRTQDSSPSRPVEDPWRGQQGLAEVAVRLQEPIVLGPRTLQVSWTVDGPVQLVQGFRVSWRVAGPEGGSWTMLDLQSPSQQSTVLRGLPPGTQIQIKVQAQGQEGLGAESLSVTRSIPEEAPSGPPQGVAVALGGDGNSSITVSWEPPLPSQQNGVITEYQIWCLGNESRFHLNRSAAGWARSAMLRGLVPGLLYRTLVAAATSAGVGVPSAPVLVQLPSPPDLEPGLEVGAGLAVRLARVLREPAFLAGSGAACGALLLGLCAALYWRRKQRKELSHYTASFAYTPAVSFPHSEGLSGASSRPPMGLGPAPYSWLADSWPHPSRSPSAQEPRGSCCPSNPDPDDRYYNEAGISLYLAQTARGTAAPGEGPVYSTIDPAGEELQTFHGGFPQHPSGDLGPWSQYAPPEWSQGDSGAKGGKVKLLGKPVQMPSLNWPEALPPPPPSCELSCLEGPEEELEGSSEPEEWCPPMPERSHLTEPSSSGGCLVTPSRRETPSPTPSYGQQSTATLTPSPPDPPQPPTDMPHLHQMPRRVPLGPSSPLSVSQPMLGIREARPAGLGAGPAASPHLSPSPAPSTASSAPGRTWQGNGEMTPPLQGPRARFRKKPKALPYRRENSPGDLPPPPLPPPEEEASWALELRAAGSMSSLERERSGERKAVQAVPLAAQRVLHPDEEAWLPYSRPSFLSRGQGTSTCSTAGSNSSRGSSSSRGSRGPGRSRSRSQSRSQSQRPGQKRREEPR
The test can be described thus: flow cytometry on transfected HEK293 cells. A general note: In flow cytometry, cells or beads pass a laser one at a time.

Test [2] deals with T2, mouse ROBO4 (pCI-mROBO4-transfected HEK293 cells) (mouse, UniProt Q8C310 28-1012).
T2 sequence: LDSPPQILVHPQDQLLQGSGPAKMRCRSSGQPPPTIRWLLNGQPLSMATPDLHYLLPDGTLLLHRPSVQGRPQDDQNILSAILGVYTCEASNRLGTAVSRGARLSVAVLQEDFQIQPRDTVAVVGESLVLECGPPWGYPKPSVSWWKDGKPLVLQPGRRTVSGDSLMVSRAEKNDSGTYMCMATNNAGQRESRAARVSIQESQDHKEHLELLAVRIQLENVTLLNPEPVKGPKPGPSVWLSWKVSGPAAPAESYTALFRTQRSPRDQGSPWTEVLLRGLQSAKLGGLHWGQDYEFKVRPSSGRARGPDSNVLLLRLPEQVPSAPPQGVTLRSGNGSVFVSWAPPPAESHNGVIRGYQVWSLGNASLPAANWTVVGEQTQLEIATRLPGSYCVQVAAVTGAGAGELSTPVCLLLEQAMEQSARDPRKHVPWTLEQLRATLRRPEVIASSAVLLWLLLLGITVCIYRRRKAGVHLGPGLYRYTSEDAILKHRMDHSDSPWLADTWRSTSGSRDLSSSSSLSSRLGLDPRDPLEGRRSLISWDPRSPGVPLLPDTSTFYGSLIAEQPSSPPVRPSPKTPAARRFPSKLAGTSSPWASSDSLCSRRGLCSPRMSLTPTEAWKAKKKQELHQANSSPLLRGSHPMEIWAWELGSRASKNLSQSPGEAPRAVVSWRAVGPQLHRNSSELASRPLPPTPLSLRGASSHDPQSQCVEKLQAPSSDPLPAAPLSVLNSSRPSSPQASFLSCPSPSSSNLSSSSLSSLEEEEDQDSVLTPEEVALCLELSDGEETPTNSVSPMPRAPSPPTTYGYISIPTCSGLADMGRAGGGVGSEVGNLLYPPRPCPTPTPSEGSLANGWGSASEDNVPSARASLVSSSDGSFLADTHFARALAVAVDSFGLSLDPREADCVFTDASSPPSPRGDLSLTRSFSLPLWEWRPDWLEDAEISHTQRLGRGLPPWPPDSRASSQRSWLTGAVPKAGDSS
The test can be described thus: flow cytometry (FC500), HEK293 cells transfected with pCI-mROBO4, FITC goat anti-human IgG Fc; control histogram IgG (human IgG).

B1: humanized MAb1 antibody H-1140 (antibody, human IgG2, kappa, V domains shown)
VH: EVQLVESGGGLVQPGGSLRLSCAASGFTFSTYAMSWVRQAPGKGLEWVATISQGGTYTYYPDSVKGRFTISRDNAKNTLYLQMNSLRAEDTAVYYCARLIYYDYLDYWGQGTLVTVSS
VL: DIVMTQSPLSLPVTLGEPASISCRSSQSLENSNGNTYLNWYLQKPGQSPQLLIYRVSNRFSGVPDRFSGSGSGTDFTLKISRVEAEDVGVYYCLQVTHVPWTFGPGTKVDIKR
notes: Human IgG2 / kappa constant regions; also called hMAb1-H2-type heavy chain + hMAb1-L1-type light chain
As for B1, the binding result in test [1] is “no binding (tested: 10 µg/mL (method of 4)-4-2))”.

B2: humanized MAb1 antibody H-2140 (antibody, human IgG2, kappa, V domains shown)
VH: EVQLVESGGGLVQPGGSLRLSCAASGFTFSTYAMSWVRQAPGKRLEWVATISQGGTYTYYPDSVKGRFTISRDNAKNTLYLQMNSLRAEDTAVYYCARLIYYDYLDYWGQGTLVTVSS
VL: DIVMTQSPLSLPVTLGEPASISCRSSQSLENSNGNTYLNWYLQKPGQSPQLLIYRVSNRFSGVPDRFSGSGSGTDFTLKISRVEAEDVGVYYCLQVTHVPWTFGPGTKVDIKR
notes: Human IgG2 / kappa constant regions; also called hMAb1-H4-type heavy chain + hMAb1-L1-type light chain
Consider B2, for which the binding result in test [2] is on record as “no binding (tested: 10 µg/mL)”.

(Values after patent US20150098945A1 (Daiichi Sankyo, published 2015).)
